Data set [1] deals with the molecule itself. Nature of the data set: SEC; SEC profile of cell-free synthesized ORF14 in DDM detergent micelles. On the technique in general: In gel filtration, larger molecules generally elute earlier.
The data set “SEC” concerns the molecule itself. Nature of the data set: SEC.

What is called stoichiometry N is a count of units in the complex or per binding partner.

B1: ORF14 (ORF9c) protein, full-length (natural protein)
chain: MLQSCYNFLKEQHCQKASTQKGAEAAVKPLLVPHHVVATVQEIQLQAAVGELLLLEWLAMAVMLLLLCCCLTD
notes: also called OFR14
Take B1: the “stoichiometry N” value in data set [1] was roughly 9.

B2: nsp9, full-length (natural protein)
chain: NNELSPVALRQMSCAAGTTQTACTDDNALAYYNTTKGGRFVLALLSDLQDLKWARFPKSDGTGTIYTELEPPCRFVTDTPKGPKVKYLYFIKGLNNLNRGMVLGSLAATVRLQ
notes: also called fl nsp9
On to B2, for which the “stoichiometry N” value in “SEC” is 2.

Source of the values: PMC8141814 (Frontiers in Molecular Biosciences, 2021).
